The record followed here is publication PMC12730105, “The Interaction Between PGD2 and G6PD6 Is Involved in Aromatic Amino Acid Synthesis” (Biology, 2025).

This assay deals with T1, MBP-G6PD6 (pMAL-c5x) (Arabidopsis thaliana, UniProt Q9FJI5 1-515).
T1 construct: glucose-6-phosphate dehydrogenase 6 (G6PD6), Arabidopsis thaliana, At5g40760, full-length ORF in pMAL-c5x; pMAL-c5x normally places MBP at the N-terminus; source: E. coli BL21 (DE3), purified (amylose resin)
T1 sequence (looked up): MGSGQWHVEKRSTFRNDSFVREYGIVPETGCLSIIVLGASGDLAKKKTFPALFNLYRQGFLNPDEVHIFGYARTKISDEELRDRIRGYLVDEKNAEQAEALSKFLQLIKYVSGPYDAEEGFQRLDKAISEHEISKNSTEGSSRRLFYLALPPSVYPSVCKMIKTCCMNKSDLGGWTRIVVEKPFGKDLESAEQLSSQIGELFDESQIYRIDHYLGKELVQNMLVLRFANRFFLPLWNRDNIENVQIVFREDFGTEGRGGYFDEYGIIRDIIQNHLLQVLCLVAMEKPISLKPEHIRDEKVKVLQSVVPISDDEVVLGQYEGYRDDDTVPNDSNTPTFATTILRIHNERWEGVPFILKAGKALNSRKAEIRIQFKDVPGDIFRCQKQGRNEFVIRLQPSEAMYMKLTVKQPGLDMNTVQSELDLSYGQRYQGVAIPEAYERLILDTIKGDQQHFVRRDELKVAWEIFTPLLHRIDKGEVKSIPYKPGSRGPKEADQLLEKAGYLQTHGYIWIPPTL
Kind of assay: pull-down; purified PGD2-HIS immobilised on Mag-Beads His-Tag resin (4 °C, 1 h), incubated with MBP-G6PD6 at 4 °C for 3 h, three washes, Western blot (the results speak of immobilised MBP-G6PD6). The following applies: both partners purified.

B1: PGD2-HIS (pET28a-PGD2) (enzyme, Arabidopsis thaliana, UniProt Q9FWA3 1-486, looked up)
chain: MAVQPTRIGLAGLAVMGQNLALNIAEKGFPISVYNRTTSKVDETVERAKKEGNLPLYGFHDPESFVKSIQKPRVIIMLVKAGSPVDQTIKTLSAYLEKGDCIVDGGNEWYENTERREKAVAENGFLYLGMGVSGGEEGARNGPSMMPGGSYEAYKNIEDIVLKVAAQVRDSGPCVTYIGKGGSGNFVKMVHNGIEYGDMQLIAEAYDVLKSVGKLSNEELHSVFSDWNKGELESFLVEITADIFGIKDDKGDGHLVDKVLDKTGMKGTGKWTVQQAAELSVPAPTIESSLDARFLSGLKDERVQAAKVFKAGGFGDILTDQKVDKKQLVDDVRKALYASKICSYAQGMNLIRAKSIEKGWGLKLGELARIWKGGCIIRAIFLDRIKQAYDRNAELANLLVDPEFAKEIIERQSAWRRVVCLAINSGISTPGMSASLAYFDSYRRERLPANLVQAQRDYFGAHTYERTDVEGSFHTEWFKIARQSKI
notes: Printed as PGD2-HIS in the methods and HIS-PGD2 in the results; also called HIS-PGD2; source: E. coli BL21 (DE3), purified (His60 Ni Superflow resin)
On to B1, for which the binding result is given as “binds”.
